Results as given in paper PMC9352680, “A comprehensive thermodynamic model for RNA binding by the Saccharomyces cerevisiae Pumilio protein PUF4”.

Target: T1, PUF4 RNA-binding domain (Saccharomyces cerevisiae, UniProt P25339 537-888)
T1 sequence: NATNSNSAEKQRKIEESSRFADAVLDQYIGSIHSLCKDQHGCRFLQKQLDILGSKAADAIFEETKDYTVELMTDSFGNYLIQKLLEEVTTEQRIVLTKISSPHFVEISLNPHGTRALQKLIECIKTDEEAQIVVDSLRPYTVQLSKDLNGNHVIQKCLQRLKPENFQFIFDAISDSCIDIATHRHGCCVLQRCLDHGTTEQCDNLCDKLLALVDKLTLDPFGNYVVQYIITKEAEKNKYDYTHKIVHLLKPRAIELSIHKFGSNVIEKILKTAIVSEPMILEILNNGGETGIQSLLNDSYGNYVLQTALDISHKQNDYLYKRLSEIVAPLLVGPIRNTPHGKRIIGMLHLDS
Experiment: Mg; RNA-MaP; 20 mM Na-HEPES pH 7.4, 30 mM KOAc, 0.75 mM MgCl2, 0.1% Tween-20, 5% glycerol, 0.1 mg/mL BSA, 2 mM DTT; 25 C; 0.0125-409.6 nM protein
Settings: tags: N-His6-TEV cleaved; C-SNAP kept, Cy3B-labelled; label: tethered on chip by stalled RNA polymerase

Binder UCUCUUCUUAUAUUAUUAUUUCUCUU (ssRNA) [Id_ii_S1_P5E.3_K5.2_C5.2_H5.2_A5.1_F5.1_T5.2_[A12T]] has a Kd of 0.229 µM.

UCUCUUUGUAUUAUAUCUCUU (ssRNA) [Ib_S1_P4E.1_K4.1_C4.1_H4.1_A4.1_[A6T]_[T7A]_F4.1_T4.1] was tested, and the Kd was 0.00213 µM.

UCUCUUCCUAUAUUAUUAAAUCUCUU (ssRNA) [Id_ii_S1_P5E.3_K5.2_C5.2_[T-1C]_H5.2_A5.1_F5.1_T5.2_[T11A]] gave a Kd of 0.683 µM.

Binder UCUCUUCAUAUAUUAUUACGUCUCUU (ssRNA) [Id_ii_S1_P5E.3_K5.2_C5.2_[T-1A]_H5.2_A5.1_F5.1_T5.2_[T11C]_[A12G]] has a Kd of 0.44 µM.

UCUCUUUGUAUUACCAUCUCUU (ssRNA) [Ib_S1_P5E.1_K5.1_C5.1_H5.1_A5.1_F5.1_[T8C]_[T9C]_T5.1] gave a Kd of 0.287 µM.

With UCUCUUAUUAUAUUAUUAUUUCUCUU (ssRNA) [Id_ii_S1_P5E.3_K5.2_C5.2_[C-2A]_H5.2_A5.1_F5.1_T5.2_[A12T]] the Kd was 0.16 µM.

In the case of UCUCUUAAUAUAUUAUUACAUCUCUU (ssRNA) [Id_ii_S1_P5E.3_K5.2_C5.2_[C-2A]_[T-1A]_H5.2_A5.1_F5.1_T5.2_[T11C]], the Kd is reported as 0.601 µM.

UCUCUUAAUAUAUUAUUACUUCUCUU (ssRNA) [Id_ii_S1_P5E.3_K5.2_C5.2_[C-2A]_[T-1A]_H5.2_A5.1_F5.1_T5.2_[T11C]_[A12T]] showed a Kd of 0.552 µM.

UCUCUUCGUAUAUUAUUAUCUCUCUU (ssRNA) [Id_ii_S1_P5E.3_K5.2_C5.2_[T-1G]_H5.2_A5.1_F5.1_T5.2_[A12C]] showed a Kd of 0.0185 µM.

In the case of UCUCUUACUAUAUUAUUAUCUCUCUU (ssRNA) [Id_ii_S1_P5E.3_K5.2_C5.2_[C-2A]_[T-1C]_H5.2_A5.1_F5.1_T5.2_[A12C]], the Kd is reported as 0.536 µM.

With UCUCUUCAUAUAUUAUUAUCUCUCUU (ssRNA) [Id_ii_S1_P5E.3_K5.2_C5.2_[T-1A]_H5.2_A5.1_F5.1_T5.2_[A12C]] the Kd was 0.18 µM.

Binder UCUCUUCCUAUAUUAUUACAUCUCUU (ssRNA) [Id_ii_S1_P5E.3_K5.2_C5.2_[T-1C]_H5.2_A5.1_F5.1_T5.2_[T11C]] has a Kd of 0.593 µM.

In the case of UCUCUUACUAUAUUAUUAAAUCUCUU (ssRNA) [Id_ii_S1_P5E.3_K5.2_C5.2_[C-2A]_[T-1C]_H5.2_A5.1_F5.1_T5.2_[T11A]], the Kd is reported as 0.626 µM.

For UCUCUUCGUAUAUUAUUAACUCUCUU (ssRNA) [Id_ii_S1_P5E.3_K5.2_C5.2_[T-1G]_H5.2_A5.1_F5.1_T5.2_[T11A]_[A12C]], the Kd was 0.0277 µM.

In the case of UCUCUUGCACACUUAUUACGUCUCUU (ssRNA) [Id_ii_S1_P5E.4_K5.3_C5.2_[C-2G]_[T-1C]_H5.3_A5.1_F5.1_T5.2_[T11C]_[A12G]], the Kd is reported as > 2.3 µM.

With UCUCUUAUUAUAUUAUUACUUCUCUU (ssRNA) [Id_ii_S1_P5E.3_K5.2_C5.2_[C-2A]_H5.2_A5.1_F5.1_T5.2_[T11C]_[A12T]] the Kd was 0.175 µM.

UCUCUUAAUAUAUUAUUACCUCUCUU (ssRNA) [Id_ii_S1_P5E.3_K5.2_C5.2_[C-2A]_[T-1A]_H5.2_A5.1_F5.1_T5.2_[T11C]_[A12C]] showed a Kd of 0.668 µM.

With UCUCUUCCUAUAUUAUUAACUCUCUU (ssRNA) [Id_ii_S1_P5E.3_K5.2_C5.2_[T-1C]_H5.2_A5.1_F5.1_T5.2_[T11A]_[A12C]] the Kd was 0.62 µM.

UCUCUUCUUAUAUUAUUAGCUCUCUU (ssRNA) [Id_ii_S1_P5E.3_K5.2_C5.2_H5.2_A5.1_F5.1_T5.2_[T11G]_[A12C]] showed a Kd of 0.122 µM.

Binder UCUCUUAUUAUAUUAUUAGCUCUCUU (ssRNA) [Id_ii_S1_P5E.3_K5.2_C5.2_[C-2A]_H5.2_A5.1_F5.1_T5.2_[T11G]_[A12C]] has a Kd of 0.208 µM.

In the case of UCUCUUCUUAUAUUAUUACCUCUCUU (ssRNA) [Id_ii_S1_P5E.3_K5.2_C5.2_H5.2_A5.1_F5.1_T5.2_[T11C]_[A12C]], the Kd is reported as 0.571 µM.

Work on UCUCUUCGUAUAUUAUUAAUUCUCUU (ssRNA) [Id_ii_S1_P5E.3_K5.2_C5.2_[T-1G]_H5.2_A5.1_F5.1_T5.2_[T11A]_[A12T]] yielded a Kd of 0.0265 µM.

Work on UCUCUUCAUAUAUUAUUACCUCUCUU (ssRNA) [Id_ii_S1_P5E.3_K5.2_C5.2_[T-1A]_H5.2_A5.1_F5.1_T5.2_[T11C]_[A12C]] yielded a Kd of 0.278 µM.

For UCUCUUACUAUAUUAUUAAUUCUCUU (ssRNA) [Id_ii_S1_P5E.3_K5.2_C5.2_[C-2A]_[T-1C]_H5.2_A5.1_F5.1_T5.2_[T11A]_[A12T]], the Kd was 0.453 µM.

In the case of UCUCUUCAUAUAUUAUUAUUUCUCUU (ssRNA) [Id_ii_S1_P5E.3_K5.2_C5.2_[T-1A]_H5.2_A5.1_F5.1_T5.2_[A12T]], the Kd is reported as 0.395 µM.

In the case of UCUCUUAUUAUAUUAUUAUCUCUCUU (ssRNA) [Id_ii_S1_P5E.3_K5.2_C5.2_[C-2A]_H5.2_A5.1_F5.1_T5.2_[A12C]], the Kd is reported as 0.0635 µM.

Work on UCUCUUCCUAUAUUAUUACGUCUCUU (ssRNA) [Id_ii_S1_P5E.3_K5.2_C5.2_[T-1C]_H5.2_A5.1_F5.1_T5.2_[T11C]_[A12G]] yielded a Kd of 0.746 µM.

Work on UCUCUUCUUAUAUUAUUACAUCUCUU (ssRNA) [Id_ii_S1_P5E.3_K5.2_C5.2_H5.2_A5.1_F5.1_T5.2_[T11C]] yielded a Kd of 0.471 µM.

For UCUCUUCCUAUAUUAUUAAGUCUCUU (ssRNA) [Id_ii_S1_P5E.3_K5.2_C5.2_[T-1C]_H5.2_A5.1_F5.1_T5.2_[T11A]_[A12G]], the Kd was 0.971 µM.

UCUCUUAUUAUAUUAUUAACUCUCUU (ssRNA) [Id_ii_S1_P5E.3_K5.2_C5.2_[C-2A]_H5.2_A5.1_F5.1_T5.2_[T11A]_[A12C]] was tested, and the Kd was 0.159 µM.

UCUCUUCAUAUAUUAUUAAUUCUCUU (ssRNA) [Id_ii_S1_P5E.3_K5.2_C5.2_[T-1A]_H5.2_A5.1_F5.1_T5.2_[T11A]_[A12T]] showed a Kd of 0.424 µM.
